Laboratory results: the Human Domainome abundance scans (Beltran et al. 2025)
± gives the uncertainty stated by the source.

B1: POU domain, class 5, transcription factor 1, residues 134 to 212; numbered along this chain, Q01860 (parent)
chain: EESQDIKALQKELEQFAKLLKQKRITLGYTQADVGLTLGVLFGKVFSQTTICRFEALQLSFKNMCKLRPLLQKWVEEAD

Variants of: B1
Assay: abundance fitness (aPCA) (normalised: wild type 0, dead -1); higher = more abundant; growth selection in yeast, the domain comes from the species named
Details: Homo sapiens

| Variant | abundance fitness |
| --- | --- |
| K66T | -0.187 ± 0.16 |
| K66V | -0.365 ± 0.15 |
| K66Q | -0.051 ± 0.19 |
| K66G | -0.185 ± 0.091 |
| D79T | -0.122 ± 0.21 |
| D79G | -0.312 ± 0.13 |
| D79V | 0.111 ± 0.13 |
| D79A | -0.741 ± 0.25 |
| E14I | 0.14 ± 0.15 |
| E14P | -0.613 ± 0.29 |
| E14R | 0.063 ± 0.081 |
| E14W | -0.367 ± 0.15 |
| F54P | -0.719 ± 0.4 |
| F54S | -0.562 ± 0.24 |
| F54K | -0.662 ± 0.42 |
| F54A | -1.13 ± 0.5 |
| F54G | -0.695 ± 0.14 |
| F54C | -0.5 ± 0.38 |
| Q58T | -0.097 ± 0.2 |
| Q58E | 0.126 ± 0.11 |
| Q58G | -0.573 ± 0.25 |
| Q58S | -0.307 ± 0.17 |
| Q58L | -0.43 ± 0.3 |
| A8C | 0.222 ± 0.21 |

| Variant | abundance fitness |
| --- | --- |
| A8S | 0.171 ± 0.21 |
| F46W | -0.398 ± 0.19 |
| F46C | 0.311 ± 0.14 |
| F46K | -0.17 ± 0.3 |
| F46P | 0.029 ± 0.15 |
| I51G | -0.25 ± 0.15 |
| I51A | -0.916 ± 0.42 |
| I51R | -0.575 ± 0.34 |
| L9R | -0.023 ± 0.067 |
| L9N | -0.086 ± 0.22 |
| L9F | -0.316 ± 0.29 |
| L9E | 0.017 ± 0.089 |
| L9D | -0.385 ± 0.2 |
| L9T | -0.171 ± 0.18 |
| T50E | 0.231 ± 0.11 |
| T50A | -0.316 ± 0.15 |
| T50S | -0.542 ± 0.2 |
| S3V | 0.323 ± 0.24 |
| S3L | 0.163 ± 0.38 |
| S3G | 0.131 ± 0.17 |
| E1W | -0.244 ± 0.33 |
| E1G | 0.053 ± 0.073 |
| Q4T | 0.005 ± 0.11 |
| Q4K | -0.011 ± 0.16 |

| Variant | abundance fitness |
| --- | --- |
| Q4C | -0.211 ± 0.22 |
| Q4M | -0.118 ± 0.18 |
| Q4N | -0.253 ± 0.32 |
| Q4F | -0.059 ± 0.24 |
| Q4A | -0.097 ± 0.081 |
| Q4Y | 0.291 ± 0.19 |
| Q4V | -0.061 ± 0.088 |
| R53T | -0.356 ± 0.38 |
| V45G | -0.153 ± 0.043 |
| V45R | 0.036 ± 0.049 |
| V45D | -0.28 ± 0.13 |
| V45E | 0.16 ± 0.05 |
| V45T | -0.005 ± 0.11 |
| V45L | -0.338 ± 0.12 |
| S60W | -0.381 ± 0.31 |
| S60L | -0.265 ± 0.21 |
| S60V | -0.843 ± 0.25 |
| M64T | -0.496 ± 0.14 |
| M64E | -0.763 ± 0.23 |
| M64D | -0.816 ± 0.32 |
| M64P | -0.604 ± 0.27 |
| M64F | -0.8 ± 0.47 |
| M64G | -0.621 ± 0.12 |
| M64L | -0.333 ± 0.11 |

| Variant | abundance fitness |
| --- | --- |
| G35C | -0.64 ± 0.32 |
| L13M | 0.021 ± 0.17 |
| L13P | -0.306 ± 0.45 |
| L13W | -0.58 ± 0.19 |
| L13A | -0.526 ± 0.22 |
| L41T | -0.04 ± 0.35 |
| L41V | -0.329 ± 0.17 |
| L41Q | 0.048 ± 0.29 |
| A56S | -0.002 ± 0.1 |
| A56N | 0.067 ± 0.28 |
| A56W | -0.812 ± 0.23 |
| A56H | -0.245 ± 0.21 |
| A56M | 0.159 ± 0.16 |
| A56R | -0.492 ± 0.17 |
| A56Q | 0.059 ± 0.13 |
| D33P | -0.227 ± 0.2 |
| D33F | -0.407 ± 0.31 |
| D33G | -0.283 ± 0.12 |
| F42R | -0.627 ± 0.076 |
| F42E | -0.493 ± 0.096 |
| F42T | 0.166 ± 0.07 |
| F42L | -0.469 ± 0.081 |
| F42Q | -0.875 ± 0.24 |
| P69R | -0.613 ± 0.13 |

| Variant | abundance fitness |
| --- | --- |
| P69G | -0.085 ± 0.13 |
| P69T | -0.652 ± 0.2 |
| P69W | -0.999 ± 0.29 |
| I25L | 0.249 ± 0.16 |
| I25E | -0.207 ± 0.38 |
| L19A | -0.49 ± 0.35 |
| L19T | -0.49 ± 0.32 |
| L19K | 0.373 ± 0.26 |
| L27I | -0.051 ± 0.49 |
| L27H | -0.387 ± 0.41 |
| L27S | -0.724 ± 0.25 |
| L27N | -0.429 ± 0.36 |
| L27R | -0.345 ± 0.1 |
| L27G | -0.387 ± 0.1 |
| L27M | -0.188 ± 0.19 |
| S47T | -0.169 ± 0.24 |
| S47K | -0.597 ± 0.48 |
| E12M | -0.38 ± 0.24 |
| E12K | 0.254 ± 0.12 |
| E12P | -0.473 ± 0.42 |
| E12T | -0.405 ± 0.17 |
| R68S | -0.535 ± 0.25 |
| R68Q | -0.384 ± 0.16 |
| R68W | 0 ± 0.11 |

| Variant | abundance fitness |
| --- | --- |
| R68D | -0.621 ± 0.4 |
| R68E | -0.421 ± 0.26 |
| R68A | -0.265 ± 0.14 |
| R68P | -0.734 ± 0.33 |
| R68L | -0.222 ± 0.1 |
| R68Y | 0.356 ± 0.19 |
| R68G | -0.797 ± 0.23 |
| R68K | -0.154 ± 0.2 |
| Q48P | 0.097 ± 0.23 |
| Q48E | 0.484 ± 0.14 |
| Q48F | -0.343 ± 0.41 |
| Q48A | 0.162 ± 0.15 |
| Q48R | 0.126 ± 0.1 |
| Q48G | 0.24 ± 0.076 |
| Q48L | -0.435 ± 0.35 |
| L59T | -0.533 ± 0.46 |
| L59C | 0.009 ± 0.28 |
| L59V | -0.7 ± 0.25 |
| L59N | 0.124 ± 0.34 |
| L67Q | -0.756 ± 0.39 |
| L67W | -0.851 ± 0.26 |
| F16C | -0.23 ± 0.21 |
| F16E | -0.438 ± 0.39 |
| F16W | -0.341 ± 0.3 |

| Variant | abundance fitness |
| --- | --- |
| K11G | -0.168 ± 0.089 |
| K11Y | 0.067 ± 0.21 |
| K11L | -0.153 ± 0.1 |
| K11Q | 0.057 ± 0.17 |
| K11D | 0.168 ± 0.35 |
| K11P | 0.23 ± 0.39 |
| K11N | 0.048 ± 0.28 |
| K11C | -0.369 ± 0.27 |
| K23A | -0.608 ± 0.33 |
| L38Q | -0.482 ± 0.36 |
| L38T | -0.035 ± 0.23 |
| E77L | -0.124 ± 0.12 |
| Q31A | -0.103 ± 0.11 |
| Q31Y | 0.323 ± 0.27 |
| Q31W | 0.078 ± 0.12 |
| Q31P | 0.133 ± 0.14 |
| Q31G | -0.402 ± 0.16 |
| Q31F | -0.009 ± 0.29 |
| Q31V | -0.679 ± 0.21 |
| C65I | 0.246 ± 0.2 |
| C65T | -0.403 ± 0.23 |
| C65G | -0.691 ± 0.12 |
| C65V | -0.178 ± 0.097 |
